Assay results published in US20060217891A1.
Ends that are not written are not given here.

Biological target: Fas (Receptor) on the Fas-expressing human ovarian cancer cell line NOS4 (human) (UniProt P25445)
Experiment: cell-based or functional assay

Sequence of Fas (Receptor) on the Fas-expressing human ovarian cancer cell line NOS4 (human) (P25445 26-335): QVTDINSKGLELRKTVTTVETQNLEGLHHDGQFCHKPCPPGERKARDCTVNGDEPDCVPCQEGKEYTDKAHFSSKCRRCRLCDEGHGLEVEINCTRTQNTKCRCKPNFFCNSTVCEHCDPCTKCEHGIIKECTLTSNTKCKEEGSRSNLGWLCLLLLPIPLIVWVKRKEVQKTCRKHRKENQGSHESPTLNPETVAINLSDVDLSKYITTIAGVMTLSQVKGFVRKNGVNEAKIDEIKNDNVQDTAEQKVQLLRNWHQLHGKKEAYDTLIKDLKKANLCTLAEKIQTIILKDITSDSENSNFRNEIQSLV

Row | Apoptosis induction Activity (%) of NOS4 cells at 0.01 µg/ml [%] | Apoptosis induction Activity (%) of NOS4 cells at 0.03 µg/ml [%] | Apoptosis induction Activity (%) of NOS4 cells at 0.1 µg/ml [%] | Apoptosis induction Activity (%) of NOS4 cells at 0.3 µg/ml [%] | Apoptosis induction Activity (%) of NOS4 cells at 1 µg/ml [%] | apoptosis induction potential relative to the monomer FRP-2 [times] | apoptosis of NOS4 cells, same method as Test Example 1, at 5 mg/ml as printed [%] | Binder
1 | 7 | 15 | 48 | 67 | 78 |  |  | WEWT (peptide, part only, also: tetramer: each copy bound to one of 4 branches of MAP-8, remaining four amino groups of MAP-8 protected) [(FLLP-1)4-MAP8 (four WEWT peptides bound to MAP-8)]
2 |  |  |  |  |  | 30 | 50 | EPPMTFISIHTMCH (peptide, part only, also: tetramer: each copy bound to one of four branches of a lysine polymer (MAP)) [Fas complementary peptide tetramer [(FRP-2)4-MAP]]
